Measured values reported in US20200407467.

Assays:
[1] = test system: T7-SEPARATE PreScission-cleavable clone, monovalent display (T7Select1-2b)
[2] = test system: T7-SEPARATE PreScission-cleavable clone, multivalent display (mid-copy vector)
[3] = test system: uncleavable negative control clone (randomly selected 90-aa human peptide from the proteome library)
[4] = test system: Fibrinogen (peptides of the human library)

Row | Substance | phage particles recaptured, percent of pre-immobilized phage particles [1] | phage particles released, percent of pre-immobilized phage particles [1] | recapture of the cleavable peptide spiked 1 to 100 into the human library, fold increase versus mock digest [1] | signal-to-noise ratio (highest PreScission concentration versus mock digest) [1] | phage particles recaptured, percent of pre-immobilized phage particles [2] | phage particles released, percent of pre-immobilized phage particles [2] | signal-to-noise ratio (highest PreScission concentration versus mock digest) [2] | phage particles recaptured, percent of immobilized phage particles [3] | enrichment in SEPARATE (human library digest) [4]
1 | PreScission enzyme (human rhinovirus 3C protease, GE Life Sciences) | up to 53% and 43%, respectively | up to 53% | 26-fold increase | 23.4 | up to 24% and 22.5%, respectively | up to 24% and 22.5%, respectively | 11.9 | ~1% of the immobilized phage particles were similarly recaptured, whether the PreScission enzyme was included in the digest reaction or not | 
2 | Thrombin |  |  |  |  |  |  |  |  | did not score in the assay, and this was true for other canonical enzyme-substrate pairs such as Thrombin/Fibrinogen
